Test system: kinases of Table 6 on Myelin Basic Protein (MBP)
Test: Kinase assay using MBP substrate, ProQ Diamond stain (Table 6)
Assay type: biochemical
Conditions: kinase printed on MBP-coated slide; 20 uM ATP, 30° C.; ProQ Diamond Microarray Stain; graded Strong/Weak/Negative
Summary of the method: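 Reactions ran at 30° C. with 20 uM ATP, 4 mM MgCl2 and 5% DMSO in HEPES pH 7.5, inhibitor added or omitted. Kinases had been arrayed onto slide-bound dephosphorylated bovine MBP; phospho-signal read after ProQ Diamond staining.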

Molecule | MBP Kinase Activity
RPS6KA2(RSK3) (protein, left off: small tags and cut ends) MDLSMKKFAVRRFFSVYLRRKSRSKSSSLSRLEEEGVVKEIDISHHVKEGFEKADPSQFELLKVLGQGSYGKVFLVRKVKGSDAGQLYAMKVLKKATLKVRDRVRSKMERDILAEVNHPFIVKLHYAFQTEGKLYLILDFLRGGDLFTRLSKEVMFTEEDVKFYLAELALALDHLHSLGIIYRDLKPENILLDEEGHIKITDFGLSKEAIDHDKRAYSFCGTIEYMAPEVVNRRGHTQSADWWSFGVLMFEMLTGSLPFQGKDRKETMALILKAKLGMPQFLSGEAQSLLRALFKRNPCNRLGAGIDGVEEIKRHPFFVTIDWNTLYRKEIKPPFKPAVGRPEDTFHFDPEFTARTPTDSPGVPPSANAHHLFRGFSFVASSLIQEPSQQDLHKVPVHPIVQQLHGNNIHFTDGYEIKEDIGVGSYSVCKRCVHKATDTEYAVKIIDKSKRDPSEEIEILLRYGQHPNIITLKDVYDDGKFVYLVMELMRGGELLDRILRQRYFSEREASDVLCTITKTMDYLHSQGVVHRDLKPSNILYRDESGSPESIRVCDFGFAKQLRAGNGLLMTPCYTANFVAPEVLKRQGYDAACDIWSLGILLYTMLAGFTPFANGPDDTPEEILARIGSGKYALSGGNWDSISDAAKDVVSKMLHVDPHQRLTAMQVLKHPWVVNREYLSPNQLSRQDVHLVKGAMAATYFALNRTPQAPRLEPVLSSNLAQRRGMKRLTSTRL | Negative
EPHB4 (protein, left off: small tags and cut ends) LCLRKQSNGREAEYSDKHGQYLIGHGTKVYIDPFTYEDPNEAVREFAKEIDVSYVKIEEVIGAGEFGEVCRGRLKAPGKKESCVAIKTLKGGYTERQRREFLSEASIMGQFEHPNIIRLEGVVTNSMPVMILTEFMENGALDSFLRLNDGQFTVIQLVGMLRGIASGMRYLAEMSYVHRDLAARNILVNSNLVCKVSDFGLSRFLEENSSDPTYTSSLGGKIPIRWTAPEAIAFRKFTSASDAWSYGIVMWEVMSFGERPYWDMSNQDVINAIEQDYRLPPPPDCPTSLHQLMLDCWQKDRNARPRFPQVVSALDKMIRNPASLKIVARENGGASHPLLDQRQPHYSAFGSVGEWLRAIKMGRYEESFAAAGFGSFELVSQISAEDLLRIGVTLAGHQKKILASVQHMKSQAKPGTPGGTGGPAPQY | Strong
RPS6KA4(MSK2) (protein, left off: a dimerising Fc or GST) MGDEDDDESCAVELRITEANLTGHEEKVSVENFELLKVLGTGAYGKVFLVRKAGGHDAGKLYAMKVLRKAALVQRAKTQEHTRTERSVLELVRQAPFLVTLHYAFQTDAKLHLILDYVSGGEMFTHLYQRQYFKEAEVRVYGGEIVLALEHLHKLGIIYRDLKLENVLLDSEGHIVLTDFGLSKEFLTEEKERTFSFCGTIEYMAPEIIRSKTGHGKAVDWWSLGILLFELLTGASPFTLEGERNTQAEVSRRILKCSPPFPPRIGPVAQDLLQRLLCKDPKKRLGAGPQGAQEVRNHPFFQGLDWVALAARKIPAPFRPQIRSELDVGNFAEEFTRLEPVYSPPGSPPPGDPRIFQGYSFVAPSILFDHNNAVMTDGLEAPGAGDRPGRAAVARSAMMQDSPFFQQYELDLREPALGQGSFSVCRRCRQRQSGQEFAVKILSRRLEANTQREVAALRLCQSHPNVVNLHEVHHDQLHTYLVLELLRGGELLEHIRKKRHFSESEASQILRSLVSAVSFMHEEAGVVHRDLKPENILYADDTPGAPVKIIDFGFARLRPQSPGVPMQTPCFTLQYAAPELLAQQGYDESCDLWSLGVILYMMLSGQVPFQGASGQGGQSQAAEIMCKIREGRFSLDGEAWQGVSEEAKELVRGLLTVDPAKRLKLEGLRGSSWLQDGSARSSPPLRTPDVLESSGPAVRSGLNATFMAFNRGKREGFFLKSVENAPLAKRRKQKLRSATASRRGSPAPANPGRAPVASKGAPRRANGPLPPS | Weak
RPS6KB1(p70S6K) (protein, left off: a dimerising Fc or GST) MRRRRRRDGFYPAPDFRDREAEDMAGVFDIDLDQPEDAGSEDELEEGGQLNESMDHGGVGPYELGMEHCEKFEISETSVNRGPEKIRPECFELLRVLGKGGYGKVFQVRKVTGANTGKIFAMKVLKKAMIVRNAKDTAHTKAERNILEEVKHPFIVDLIYAFQTGGKLYLILEYLSGGELFMQLEREGIFMEDTACFYLAEISMALGHLHQKGIIYRDLKPENIMLNHQGHVKLTDFGLCKESIHDGTVTHTFCGTIEYMAPEILMRSGHNRAVDWWSLGALMYDMLTGAPPFTGENRKKTIDKILKCKLNLPPYLTQEARDLLKKLLKRNAASRLGAGPGDAGEVQAHPFFRHINWEELLARKVEPPFKPLLQSEEDVSQFDSKFTRQTPVDSPDDSTLSESANQVFLGFEYVAPSVLES | Negative
ROCK1 (protein, left off: a dimerising Fc or GST) MSTGDSFETRFEKMDNLLRDPKSEVNSDCLLDGLDALVYDLDFPALRKNKNIDNFLSRYKDTINKIRDLRMKAEDYEVVKVIGRGAFGEVQLVRHKSTRKVYAMKLLSKFEMIKRSDSAFFWEERDIMAFANSPWVVQLFYAFQDDRYLYMVMEYMPGGDLVNLMSNYDVPEKWARFYTAEVVLALDAIHSMGFIHRDVKPDNMLLDKSGHLKLADFGTCMKMNKEGMVRCDTAVGTPDYISPEVLKSQGGDGYYGRECDWWSVGVFLYEMLVGDTPFYADSLVGTYSKIMNHKNSLTFPDDNDISKEAKNLICAFLTDREVRLGRNGVEEIKRHLFFKNDQWAWETLRDTVAPVVPDLSSDIDTSNFDDLEEDKGEEETFPIPKAFVGNQLPFVGFTYYSNRRYLSSANPNDNRTSSNADKSLQESLQKTIYKLEEQLHNEMQLKDEMEQKCRTSNIKLDKIMKELDEEGNQRRNLESTVSQIEKEKMLLQHRINEYQRKAEQENEKRRNVENEVSTLKDQLEDLKKVSQNSQL | Strong
RPS6KB2(p70S6K2) (protein, left off: a dimerising Fc or GST) MAAVFDLDLETEEGSEGEGEPELSPADACPLAELRAAGLEPVGHYEEVELTETSVNVGPERIGPHCFELLRVLGKGGYGKVFQVRKVQGTNLGKIYAMKVLRKAKIVRNAKDTAHTRAERNILESVKHPFIVELAYAFQTGGKLYLILECLSGGELFTHLEREGIFLEDTACFYLAEITLALGHLHSQGIIYRDLKPENIMLSSQGHIKLTDFGLCKESIHEGAVTHTFCGTIEYMAPEILVRSGHNRAVDWWSLGALMYDMLTGSPPFTAENRKKTMDKIIRGKLALPPYLTPDARDLVKKFLKRNPSQRIGGGPGDAADVQRHPFFRHMNWDDLLAWRVDPPFRPCLQSEEDVSQFDTRFTRQTPVDSPDDTALSESANQAFLGFTYVAPSVLDSIKEGFSFQPKLRSPRRLNSSPRAPVSPLKFSPFEGFRPSPSLPEPTELPLPPLLPPPPPSTTAPLPIRPPSGTKKSKRGRGRPGR | Negative
SGK (protein, UniProt O00141 1-431, looked up) Serine/threonine-protein …: MTVKTEAAKGTLTYSRMRGMVAILIAFMKQRRMGLNDFIQKIANNSYACKHPEVQSILKISQPQEPELMNANPSPPPSPSQQINLGPSSNPHAKPSDFHFLKVIGKGSFGKVLLARHKAEEVFYAVKVLQKKAILKKKEEKHIMSERNVLLKNVKHPFLVGLHFSFQTADKLYFVLDYINGGELFYHLQRERCFLEPRARFYAAEIASALGYLHSLNIVYRDLKPENILLDSQGHIVLTDFGLCKENIEHNSTTSTFCGTPEYLAPEVLHKQPYDRTVDWWCLGAVLYEMLYGLPPFYSRNTAEMYDNILNKPLQLKPNITNSARHLLEGLLQKDRTKRLGAKDDFMEIKSHVFFSLINWDDLINKKITPPFNPNVSGPNDLRHFDPEFTEEPVPNSIGKSPDSVLVTASVKEAAEAFLGFSYAPPTDSFL | Strong
RPS6KA1(RSK1) (protein, left off: small tags and cut ends) MPLAQLKEPWPLMELVPLDPENGQTSGEEAGLQPSKDEGVLKEISITHHVKAGSEKADPSHFELLKVLGQGSFGKVFLVRKVTRPDSGHLYAMKVLKKATLKVRDRVRTKMERDILADVNHPFVVKLHYAFQTEGKLYLILDFLRGGDLFTRLSKEVMFTEEDVKFYLAELALGLDHLHSLGIIYRDLKPENILLDEEGHIKLTDFGLSKEAIDHEKKAYSFCGTVEYMAPEVVNRQGHSHSADWWSYGVLMFEMLTGSLPFQGKDRKETMTLILKAKLGMPQFLSTEAQSLLRALFKRNPANRLGSGPDGAEEIKRHVFYSTIDWNKLYRREIKPPFKPAVAQPDDTFYFDTEFTSRTPKDSPGIPPSAGAHQLFRGFSFVATGLMEDDGKPRAPQAPLHSVVQQLHGKNLVFSDGYVVKETIGVGSYSECKRCVHKATNMEYAVKVIDKSKRDPSEEIEILLRYGQHPNIITLKDVYDDGKHVYLVTELMRGGELLDKILRQKFFSEREASFVLHTIGKTVEYLHSQGVVHRDLKPSNILYVDESGNPECLRICDFGFAKQLRAENGLLMTPCYTANFVAPEVLKRQGYDEGCDIWSLGILLYTMLAGYTPFANGPSDTPEEILTRIGSGKFTLSGGNWNTVSETAKDLVSKMLHVDPHQRLTAKQVLQHPWVTQKDKLPQSQLSHQDLQLVKGAMAATYSALNSSKPTPQLKPIESSILAQRRVRKLPSTTL | Strong
ROCK2 (protein, left off: a dimerising Fc or GST) MSRPPPTGKMPGAPETAPGDGAGASRQRKLEALIRDPRSPINVESLLDGLNSLVLDLDFPALRKNKNIDNFLNRYEKIVKKIRGLQMKAEDYDVVKVIGRGAFGEVQLVRHKASQKVYAMKLLSKFEMIKRSDSAFFWEERDIMAFANSPWVVQLFYAFQDDRYLYMVMEYMPGGDLVNLMSNYDVPEKWAKFYTAEVVLALDAIHSMGLIHRDVKPDNMLLDKHGHLKLADFGTCMKMDETGMVHCDTAVGTPDYISPEVLKSQGGDGFYGRECDWWSVGVFLYEMLVGDTPFYADSLVGTYSKIMDHKNSLCFPEDAEISKHAKNLICAFLTDREVRLGRNGVEEIRQHPFFKNDQWHWDNIRETAAPVVPELSSDIDSSNFDDIEDDKGDVETFPIPKAFVGNQLPFIGFTYYRENLLLSDSPSCRETDSIQSRKNEESQEIQKKLYTLEEHLSNEMQAKEELEQKCKSVNTRLEKTAKELEEEITLRKSVESALRQLEREKALLQHKNAEYQRKADHEADKKRNLENDVNSLKDQLEDLKKRNQNSQI | Strong

Source: patent US20090099029A1, “Methods and substrates for conducting assays” (Invitrogen Corporation, priority 2005, published 2009)
